Columns and labels:
AIM knockout mice = assay: Macrophage infiltration into adipose tissue after systemic rAIM administration; format: in vivo, mouse; details: intravenous injection 50 μg/body/injection, 3 weeks
Description: Then, rAIM was systemically administered to the AIM knockout mice by intravenous injection (50 μg/body/injection). After the administration was continued for 3 weeks, a section produced from the visceral fat tissue was stained with an anti-macrophage monoclonal antibody (F4/80).

3T3-L1 cells = assay: rAIM uptake into 3T3-L1 cells by staining; format: cell-based, mouse
Description: Differentiated 3T3-L1 cells (ins/DEX/IBMX stimulation (+)) and undifferentiated 3T3-L1 cells (ins/DEX/IBMX stimulation (−)) were incubated with rAIM (5 μg/ml) for 3 hr, and stained with AIM, PPARγ2, and DAPI. For staining with PPARγ2, a rabbit anti-PPARγ2 polyclonal antibody (Abcam plc) was used.
In addition, 3T3-L1 adipocytes were treated with rAIM for 3 hr, stained with AIM and endosome (FM 1-43FX (Invitrogen Corporation) was used), AIM and lysosome (Lyso Tracker Red DND-99 (Invitrogen Corporation) was used), and observed under a confocal microscope.

FAS [1] = assay: Co-immunoprecipitation of AIM-HA and FLAG-FAS or FAS domains in HEK 293T cells; format: binding; details: Flag-labeled FAS domains in HEK293T cells stably expressing AIM-HA
Source text: In HEK 293T cells, rAIM labeled with HA-tag and FAS labeled with FLAG-tag were co-expressed, and the binding of AIM and FAS was confirmed by co-immunoprecipitation using an anti-Flag antibody or anti-HA antibody.
Then, the AIM binding region in FAS was examined. FAS contains 8 domains of keto acyl synthase (KS), malonyl/acetyl transferase (MAT), dehydrase (DH), central core (CC), enoylreductase (ER), keto reductase (KR), acylcarrier protein (ACP) and thioesterase (TE).
The N-terminal of each domain of FAS was labeled with Flag sequence, and expressed in HEK293T cells where AIM-HA is stably expressed. The binding of AIM-HA and each domain of FAS was confirmed by co-immunoprecipitation using an anti-Flag antibody or anti-HA antibody.
The sequence encoding full-length FAS cDNA (nucleotide: +1-7515) labeled with FLAG-tag was constructed using a part of the cDNA clone provided by Dr. Ohara (Kazusa DNA Research Institute) and some fragments cloned by RT-PCR and pFLAG-CMV2 vector (Sigma).
A cDNA fragment encoding KS, MAT, DH, CC, ER, KR, ACP or TE was prepared by subcloning to pFLAG-CMV2 vector by using full-length FAS cDNA as a template.

AIM-/- mice [2] = assay: Body weight and fat amount of HFD-fed AIM-/- mice; format: in vivo; details: AIM-/- mice on HFD, intraperitoneal 300 μg/injection/mouse twice a week, 5 weeks, versus BSA
Description: Then, rAIM was intraperitoneally administered twice a week (n=6; 300 μg/injection/mouse) to AIM^−/− mice for 5 weeks while feeding with HFD, and the body weight and adipose tissue amount were measured.

AIM-/- mice [3] = assay: mRNA level of markers in visceral fat tissue by QPCR; format: in vivo, mouse; details: rAIM administration group relative to BSA group, standardized with GAPDH
Description: The mRNA level of adipocyte marker, preadipocyte marker, and lipid droplet formation-related genes in the RNA extracted from visceral fat tissue of the mice of the rAIM administration group and BSA administration group was measured by QPCR. The measurement values were standardized with the measurement values of GAPDH, and shown by an expression level relative to that of the adipose tissue administered with BSA.

FAS [4] = target: T1, FAS (Mus musculus, UniProt P19096); assay: Co-immunoprecipitation of rAIM-HA and endogenous FAS in adipose tissue; format: binding; set-up: endogenous; details: adipose tissue of AIM-/- mice, 100 μg injected, 3 hr
T1 sequence (P19096 whole entry): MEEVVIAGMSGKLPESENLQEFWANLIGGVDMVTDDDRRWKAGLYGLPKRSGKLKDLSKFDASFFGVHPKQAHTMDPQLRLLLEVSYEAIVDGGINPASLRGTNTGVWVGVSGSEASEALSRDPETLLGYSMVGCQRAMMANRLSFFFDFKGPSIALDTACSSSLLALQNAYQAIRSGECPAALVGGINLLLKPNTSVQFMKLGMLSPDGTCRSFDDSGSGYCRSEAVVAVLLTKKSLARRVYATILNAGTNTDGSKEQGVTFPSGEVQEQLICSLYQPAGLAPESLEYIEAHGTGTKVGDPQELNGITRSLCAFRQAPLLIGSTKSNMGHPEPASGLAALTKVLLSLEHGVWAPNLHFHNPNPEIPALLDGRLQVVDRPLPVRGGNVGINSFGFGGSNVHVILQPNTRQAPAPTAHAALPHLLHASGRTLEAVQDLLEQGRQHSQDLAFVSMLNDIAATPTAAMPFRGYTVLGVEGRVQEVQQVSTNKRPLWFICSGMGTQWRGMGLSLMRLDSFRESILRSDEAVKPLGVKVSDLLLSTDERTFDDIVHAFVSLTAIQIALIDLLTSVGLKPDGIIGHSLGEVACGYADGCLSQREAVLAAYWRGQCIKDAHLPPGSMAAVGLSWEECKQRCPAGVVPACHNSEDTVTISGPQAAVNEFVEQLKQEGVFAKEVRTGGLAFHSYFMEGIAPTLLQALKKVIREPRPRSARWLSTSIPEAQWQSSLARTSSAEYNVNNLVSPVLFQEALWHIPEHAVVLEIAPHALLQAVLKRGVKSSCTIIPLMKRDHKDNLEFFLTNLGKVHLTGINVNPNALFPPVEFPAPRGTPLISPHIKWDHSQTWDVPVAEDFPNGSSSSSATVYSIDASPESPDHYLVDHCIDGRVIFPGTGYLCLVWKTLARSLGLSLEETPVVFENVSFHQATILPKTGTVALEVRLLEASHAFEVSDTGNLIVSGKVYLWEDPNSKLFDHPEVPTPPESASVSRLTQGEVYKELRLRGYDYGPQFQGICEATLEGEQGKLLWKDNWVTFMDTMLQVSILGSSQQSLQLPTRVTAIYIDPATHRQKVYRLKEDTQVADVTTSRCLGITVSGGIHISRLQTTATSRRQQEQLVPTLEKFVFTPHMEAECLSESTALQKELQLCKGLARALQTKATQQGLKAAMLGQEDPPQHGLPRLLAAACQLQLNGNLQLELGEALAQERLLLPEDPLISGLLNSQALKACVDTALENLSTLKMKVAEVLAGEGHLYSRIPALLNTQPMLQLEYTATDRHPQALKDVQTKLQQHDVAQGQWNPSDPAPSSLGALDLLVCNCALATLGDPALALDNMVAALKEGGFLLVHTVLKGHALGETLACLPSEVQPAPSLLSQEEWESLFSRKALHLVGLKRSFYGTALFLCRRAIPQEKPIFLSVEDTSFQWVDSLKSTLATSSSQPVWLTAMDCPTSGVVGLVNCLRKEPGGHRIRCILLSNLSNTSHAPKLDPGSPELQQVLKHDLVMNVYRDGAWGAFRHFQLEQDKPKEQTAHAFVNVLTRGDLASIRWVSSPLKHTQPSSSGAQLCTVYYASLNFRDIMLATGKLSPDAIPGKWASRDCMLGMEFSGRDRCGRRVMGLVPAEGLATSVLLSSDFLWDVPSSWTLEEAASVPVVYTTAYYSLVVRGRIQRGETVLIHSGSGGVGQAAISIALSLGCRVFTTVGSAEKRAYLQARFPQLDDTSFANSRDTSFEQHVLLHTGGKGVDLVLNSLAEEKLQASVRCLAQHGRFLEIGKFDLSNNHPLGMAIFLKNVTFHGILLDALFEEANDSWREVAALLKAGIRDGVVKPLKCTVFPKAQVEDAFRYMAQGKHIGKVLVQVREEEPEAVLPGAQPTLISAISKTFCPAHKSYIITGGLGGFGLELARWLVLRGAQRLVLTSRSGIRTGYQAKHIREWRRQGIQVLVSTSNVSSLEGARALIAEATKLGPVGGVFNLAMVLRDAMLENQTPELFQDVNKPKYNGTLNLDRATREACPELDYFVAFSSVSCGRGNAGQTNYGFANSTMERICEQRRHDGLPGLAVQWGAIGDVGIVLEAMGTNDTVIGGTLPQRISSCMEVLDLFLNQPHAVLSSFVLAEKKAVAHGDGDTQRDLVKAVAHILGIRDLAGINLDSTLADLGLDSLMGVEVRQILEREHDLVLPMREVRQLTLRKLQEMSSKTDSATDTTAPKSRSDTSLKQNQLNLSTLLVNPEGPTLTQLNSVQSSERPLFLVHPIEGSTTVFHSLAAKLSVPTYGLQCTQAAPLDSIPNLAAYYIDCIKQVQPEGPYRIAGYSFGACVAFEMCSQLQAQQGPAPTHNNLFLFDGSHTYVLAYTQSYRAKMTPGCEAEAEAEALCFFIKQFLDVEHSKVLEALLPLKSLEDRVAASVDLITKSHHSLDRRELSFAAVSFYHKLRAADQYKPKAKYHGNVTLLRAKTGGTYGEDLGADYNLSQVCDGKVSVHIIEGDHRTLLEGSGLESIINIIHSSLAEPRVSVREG
Description: rAIM labeled with HA-tag was directly injected to adipose tissue of AIM^−/− mice (at several points, 100 μg in total). After 3 hr, to confirm binding of rAIM-HA and endogenous FAS, co-immunoprecipitation by anti-HA antibody was performed using adipose tissue. The presence of FAS in the precipitate was analyzed by Western blotting (WB).

FAS [5] = target: T1, FAS; assay: FAS enzyme activity of treated 3T3-L1 adipocytes; format: cell-based; set-up: endogenous in cells; host or cells: 3T3-L1 adipocytes (treated cells, then lysed); details: 3T3-L1 adipocytes, rAIM 5 μg/ml, 6 days
Description: (§1) The influence of AIM on FAS activity of adipocyte or adipose tissue was examined. FAS activity was measured by the method of Kelley (Kelley et al., Biochem. J., 1986, 235:87-90) with slight modification. 3T3-L1 adipocytes, or lysates of adipose tissue of obese mice was mixed with acetyl-CoA and NADPH (0.2 M […] phosphate buffer [pH 7.0] containing 0.4 mM EDTA), and the mixture was placed in a spectrophotometer cuvette and maintained at 30° C. 20 μl of malonyl-CoA solution (0.2 mM) was added to start an enzyme reaction and decrease of OD was measured at a chart speed 2 cm/min. Based on the results, the enzyme activity of FAS was evaluated using the molar extinction coefficient of […] NADPH as 6220.
(§2) First, the FAS activity of 3T3-L1 cells treated for 6 days in the presence or absence of rAIM (5 μg/ml), and in the presence of C75 (25 μM) was measured. Moreover, the FAS activity of adipose tissues of AIM^+/+ mice and AIM^−/− mice and the FAS activity of adipose tissue of AIM^−/− mice administered with rAIM or BSA 3 hr before by intraadipose topical injection are shown in FIGS. 28 and 29, respectively.
(§3) All mice were fed with HFD for 20 weeks. The samples were dissolved (lysed) and the FAS activity was measured. The data was converted to that based on FAS protein, according to the results of WB performed using the same sample.

FAS [6] = target: T1, FAS; assay: FAS activity of adipose tissue of AIM-/- mice after intraadipose topical injection; format: in vivo; set-up: endogenous in cells; host or cells: 3T3-L1 adipocytes (treated cells, then lysed); details: AIM-/- mice fed HFD 20 weeks, rAIM injected into adipose 3 hr before, versus BSA
Description: as §1, §2, §3

B1: rAIM: recombinant AIM protein (rAIM) of mouse, HA-tagged, prepared in HEK293T cells (protein)
chain: ESPTKVQLVGGAHRCEGRVEVEHNGQWGTVCDDGWDRRDVAVVCRELNCGAVIQTPRGASYQPPASEQRVLIQGVDCNGTEDTLAQCELNYYVFDCSHEEDAGAQCENPDSDLLFIPEDVRLVDGPGHCQGRVEVLHQSQWSTVCKAGWNLQVSKVVCRQLGCGRALLTYGSCNKNTQGKGPIWMGKMSCSGQEANLRSCLLSRLENNCTHGEDTWMECEDPFELKLVGGDTPCSGRLEVLHKGSWGSVCDDNWGEKEDQVVCKQLGCGKSLHPSPKTRKIYGPGAGRIWLDDVNCSGKEQSLEFCRHRLWGYHDCTHKEDVEVICTDFDV
modifications: left off: small tags and cut ends
notes: recombinant AIM protein (rAIM) of mouse, HA-tagged, prepared in HEK293T cells
infiltration of macrophages into adipose tissue (F4/80 staining of visceral fat section) (AIM knockout mice): infiltration of macrophages into adipose tissue | intracellular localization of incorporated rAIM (endosome, lysosome staining) (3T3-L1 cells; 3T3-L1 adipocytes, rAIM 3 hr, confocal microscope): co-localized with endosome | rAIM uptake efficiency (3T3-L1 cells; cells showing low expression of PPARγ2, rAIM 5 μg/ml, 3 hr): markedly low | rAIM uptake (cells containing rAIM per 100 cells) (3T3-L1 cells; mature adipocytes highly expressing PPARγ2, rAIM 5 μg/ml, 3 hr): efficient rAIM uptake | rAIM uptake (3T3-L1 cells; preadipocytes free of differentiation induction stimulation, rAIM 5 μg/ml, 3 hr): no rAIM uptake | FAS domains bound to AIM (FAS [1]): ER, DH, TE and CC | increase in body weight (AIM-/- mice [2]): significantly small increase | increase in subcutaneous fat (AIM-/- mice [2]): significantly small increase | increase in visceral fat (AIM-/- mice [2]): significantly small increase | mRNA level of Adipophilin in visceral fat (AIM-/- mice [3]): low | mRNA level of FSP27 in visceral fat (AIM-/- mice [3]): low | mRNA level of PREF-1 in visceral fat (AIM-/- mice [3]): increased | mRNA level of Perilipin in visceral fat (AIM-/- mice [3]): low | mRNA of C/EBPα in visceral fat (AIM-/- mice [3]): did not show difference | mRNA of GLUT4 in visceral fat (AIM-/- mice [3]): did not show difference | mRNA of PPARγ2 in visceral fat (AIM-/- mice [3]): did not show difference | binding of rAIM-HA and endogenous FAS (co-immunoprecipitation, Western blotting) (FAS [4]): coprecipitated | FAS activity (FAS [5]): markedly suppressed | FAS activity in adipose tissue (FAS [6]): decreased
